From article PMC7718874 (2020)
Where no end group is shown, it is not given here. Me3 = trimethyl-lysine; Me2 = dimethyl-lysine

B2: AIPP3-BAH domain (residues 112-279) (domain or fragment)
chain: GKGKGKRTHFNQFAYDGNTYDLEVPVLLVPEDKSQKPYVAIIKDITQTKDGSMMILGQWFYRPEEAEKRGGGNWQSSDTRELFYSFHRDEVPAESVMHRCVVYFVPAHKQLPKRKNNPGFIVRKVYDTVEKKLWKLTDKDYEDSKQREIDVLVKKTMNVLGDLPDLES
B3: PAIPP2-PHD finger (domain or fragment)
chain: VKVCDICGDAGREDLLAICSGCSDGAEHTYCMREMLDEVPEGDWLCEECAEE

Assays:
Experiment in all cases: ITC
PAIPP2-PHD finger = biological target: B3
H3K27me1 = biological target: T1, H3K27me1 (Arabidopsis thaliana, also: biotinylated in pull-down)
T1 chain: LATKAARK(Me)SAPATGGVKK

H3K27me2 = biological target: T2, H3K27me2 (Arabidopsis thaliana, also: biotinylated in pull-down)
T2 chain: LATKAARK(Me2)SAPATGGVKK

H3K4me1 = biological target: T3, H3K4me1 (Arabidopsis thaliana)
T3 chain: ARTK(Me)QTARKSTGGKA

H3K4me2 = biological target: T4, H3K4me2 (Arabidopsis thaliana)
T4 chain: ARTK(Me2)QTARKSTGGKA

AIPP3-BAH domain H198A = biological target: T5, AIPP3-BAH domain H198A (Arabidopsis, UniProt Q8RXT5 112-279, H198A)
T5 sequence: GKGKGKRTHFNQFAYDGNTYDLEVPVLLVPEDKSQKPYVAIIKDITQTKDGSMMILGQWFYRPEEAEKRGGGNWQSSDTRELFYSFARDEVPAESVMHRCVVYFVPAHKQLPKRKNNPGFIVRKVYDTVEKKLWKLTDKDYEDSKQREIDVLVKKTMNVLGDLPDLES

AIPP3-BAH domain W170A = biological target: T6, AIPP3-BAH domain W170A (Arabidopsis, UniProt Q8RXT5 112-279, W170A)
T6 sequence: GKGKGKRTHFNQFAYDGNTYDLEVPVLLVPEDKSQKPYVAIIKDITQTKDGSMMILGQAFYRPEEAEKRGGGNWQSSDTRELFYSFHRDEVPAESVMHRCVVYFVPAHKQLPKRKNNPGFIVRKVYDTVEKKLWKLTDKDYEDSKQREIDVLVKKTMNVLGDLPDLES

[1] = biological target: B2
AIPP3-BAH domain D200A = biological target: T7, AIPP3-BAH domain D200A (Arabidopsis, UniProt Q8RXT5 112-279, D200A)
T7 sequence: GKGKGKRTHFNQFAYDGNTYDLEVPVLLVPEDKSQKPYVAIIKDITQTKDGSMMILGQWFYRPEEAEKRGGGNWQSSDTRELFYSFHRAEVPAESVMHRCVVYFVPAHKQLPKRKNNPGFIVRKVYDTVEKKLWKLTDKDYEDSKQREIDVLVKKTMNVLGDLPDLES

AIPP3-BAH domain Y149A = biological target: T8, AIPP3-BAH domain Y149A (Arabidopsis, UniProt Q8RXT5 112-279, Y149A)
T8 sequence: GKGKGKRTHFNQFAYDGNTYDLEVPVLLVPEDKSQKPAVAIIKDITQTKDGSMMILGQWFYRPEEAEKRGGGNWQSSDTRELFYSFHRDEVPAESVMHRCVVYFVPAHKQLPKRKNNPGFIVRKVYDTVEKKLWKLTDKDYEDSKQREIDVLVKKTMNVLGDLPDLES

B1: unmodified H3K4 peptide (peptide)
chain: ARTKQTARKSTGGKA
modifications: zinc-bound PHD finger; limits from the UniProt ZN_FING feature, construct limits not printed unmodified Lys4; H3 1-15 assumed by convention
Q: For B1, which Kd (PAIPP2-PHD finger) is on record?
A: 18.6 µM

Q: What does the source list for B2?
A: Kd (H3K27me1): 24.2 µM; Kd (H3K27me2): 17.1 µM

Q: With B3 as the binder, how does the Kd (H3K4me1) read?
A: 22.1 µM

Q: What about the Kd (H3K4me2) of the same binder?
A: 30 µM

Q: How did the Kd (AIPP3-BAH domain H198A) turn out when LATKAARK(Me3)SAPATGGVKK [H3K27me3 peptide] was run?
A: 17.4 µM

Q: What about the Kd (AIPP3-BAH domain W170A) of the same binder?
A: 28.5 µM

Q: What about the Kd [1] of the same binder?
A: 7.4 µM

Q: And the Kd (AIPP3-BAH domain D200A)?
A: 34.1 µM

Q: And the Kd (AIPP3-BAH domain Y149A)?
A: 19.8 µM

Q: With ARTKQTARKSTGGKA (dimethyl-lysine at K9) [H3K9me2 peptide] as the binder, how does the Kd [1] read?
A: 17.3 µM

Q: With ARTK(Me3)QTARKSTGGKA [H3K4me3 peptide] as the binder, how does the Kd [1] read?
A: 24.3 µM
